What was measured:
[1] = tested on: β3/HEK293 cells; assay: Apoptosis by annexin V staining, β3/HEK293 cells expressing αvβ3 integrin (Example 8); assay type: cell-based; details: annexin V FACS
Procedure: To identify an integrin that mediates the induction of endothelial cell apoptosis by the fas-1 domain, the present inventors performed a test using HEK293 cells (β3/HEK293 and β5/HEK293) which had been transfected such as to express αvβ3 integrin or αvβ5 integrin.
For this purpose, a β3/HEK293 cell that expresses αvβ3 integrin was prepared in the following manner. In order to construct a human β3 integrin expression vector, RT-PCR using human placenta poly(A)^+ RNA as a template was first performed to produce 2.4-kb β3 cDNA (Chandrika, S. K. et al., J. Biol. Chem., 272:16390-16397, 1997). The amplified β3 cDNA was digested with HindIII/XbaI, and then cloned into a pcDNA3 vector (Invitrogen). The resulting vector was named “β3/pcDNA3”. Thereafter, 1 μg of the β3/pcDNA3 vector was introduced into HEK293 cells (ATCC, catalog No. CRL 1573) by lipofectamin (Gibco). As the vector contains a G418 selection marker, a stable transfected cell was screened using 1 mg/ml of G418. The cell transfected with the β3/pcDNA3 vector was named “β3/HEK293”.
pc/HEK293 cells, β3/HEK293 cells and β5/HEK293 cells were stained with annexin V to identify an integrin that mediates the induction of endothelial cell apoptosis by the fas-1 domain. Each of the cells was suspended in medium at a density of 5×10^5 cells/ml, added to each well of 6-well plated and incubated at 37° C. overnight. […]

[2] = tested on: pc/HEK293 cells; assay: Apoptosis by annexin V staining, pc/HEK293 control cells (Example 8); assay type: cell-based; details: annexin V FACS
Procedure: A control cell was transfected with a pcDNA3 vector containing no β3 cDNA or β5 cDNA fragment, and named “pc/HEK293”.
pc/HEK293 cells, β3/HEK293 cells and β5/HEK293 cells were stained with annexin V to identify an integrin that mediates the induction of endothelial cell apoptosis by the fas-1 domain. Each of the cells was suspended in medium at a density of 5×10^5 cells/ml, added to each well of 6-well plated and incubated at 37° C. overnight. Following this, a test was performed in the same manner as in Example 7-1 above.

[3] = tested on: blood vessels in Matrigel plugs; assay: In vivo Matrigel plug assay (Example 9-2); parameters: species or system C57/BL6 mice
Procedure: An in vivo Matrigel plug assay was performed according to the method described by Maeshima, Y. et al., J. Biol. Chem., 275:23745-23750, 2000. 5-6 week old male C57/BL6 mice purchased from Hyochang scientific company, Korea, were used.
First, Matrigel (BD Biosciences, MA) was mixed with 20 units/ml heparin, 150 ng/ml bFGF (basic fibroblast growth factor, R&D system, International, Inc), and 5 μM or 10 μM of the fas-1 domain (pig-h3 D-IV). As a control was treated with PBS. The Matrigel mixture was injected subcutaneously to the C57/BL6 mice. After 7 days, the mice were sacrificed, and the Matrigel plugs were removed and fixed in 4% paraformaldehyde. The Matrigel plugs were embedded in paraffin, sectioned and stained with H&E. Their sections were examined by light microscope, the number of blood vessels from 4-6 HPF (high power fields; x200) was counted and averaged. Each group consisted of 3 or 4 Matrigel plugs.

[4] = tested on: HUVECs; assay: Endothelial cell adhesion to plates coated with βig-h3 or its fas-1 domains (Example 2); assay type: cell-based, human; details: plate coated with 10 μg/ml protein; absorbance 405 nm
Procedure: Cell adhesion assay was performed according to the method described by Kim, J.-E. et al., J. Biol. Chem., 277:46159-46165, 2002. For this purpose, 10 μg/ml of each of the recombinant proteins (βig-h3 His-1-b, βig-h3 D-I, βig-h3 D-II, βig-h3 D-III and βig-h3 D-IV) prepared in Example 1 was placed into a flat-bottomed 96-well ELISA (enzyme-linked immunosorbent assay) plate (Costar, Corning Inc., NY) and then incubated overnight at 4° C., to coat the surface of the plate. As a control, 2% BSA was coated on the plate. Then, the plate was treated with PBS (phosphate-buffered saline) containing 2% BSA, and blocked at room temperature for one hour.
Meanwhile, HUVECs (human umbilical vein endothelial cells; Clonetics, San Diego, Calif.) were incubated in EGM medium (Clonetics, San Diego, Calif.) containing 2% FBS (Fetal Bovine Serum) under a condition of 37° C. and 5% CO2. The incubated cells were suspended in medium at a density of 3×10^5 cells/ml, and 0.1 ml of the cell suspension was added to each well of the plate. Next, the cells were incubated at 37° C. for 30 minutes and washed one time with PBS buffer to remove cells which had not been attached to the plate. […] The absorbance was measured at a 405-nm in a Bio-Rad model 550 microplate reader. Here, the higher the number of cells adhered to the plate, the higher the absorbance.

[5] = tested on: HUVECs; assay: Binding of biotin-βig-h3 to HUVECs, Western immuno-blotting (Example 3-4); parameters: species or system human; details: biotinylated βig-h3
Procedure: To confirm that HUVECs adhesion that is mediated by βig-h3 depends on αvβ3 integrin, the present inventors tested the binding affinity of βig-h3 in the presence of an antibody that specifically blocks the function of the integrin. This binding assay was performed according to the method described by Maile, L. A., et al., J. Biol. Chem., […].
First, HUVECs were suspended in medium at a density of 1×10^5 cells/ml. 1 ml of the cell suspension was preincubated with anti-[…] antibody (LM609) or anti-αvβ5 antibody (P1F6) at 37° C. for 30 minutes. Thereafter, the preincubated cells were incubated with biotinylated βig-h3 (hereinafter, referred to as “biotin-βig-h3”) in a serum-free medium containing 0.1% BSA at 4° C. for 5 hours. The biotin-βig-h3 was added at concentrations of […], respectively. Then, the cells were washed three times with PBS buffer (pH 7.4), and dissolved at 4° C. in ice-cold buffer A (10 mM Tris-Cl, pH 7.4, 150 mM NaCl, 1% Nonidet P-40, 1% sodium deoxycholate, 0.5% SDS, 0.02% sodium azide, 1 mM EDTA, 1 mM phenylmethylsulfonyl fluoride). The cell lysates were clarified by centrifugation at 13,000 rpm for 30 minutes at 4° C. Equal amounts of protein were then separated by SDS-PAGE, 8% gel. The amount of biotin-βig-h3 was determined by Western immuno-blotting. […]

B1: fas-1 domain: recombinant protein containing the fourth fas-1 domain of human βig-h3 (SEQ ID NO: 64) (protein, listed as Homo sapiens)
chain: MGTVMDVLKGDNRFSMLVAAIQSAGLTETLNREGVYTVFAPTNEAFRALPPRERSRLLGDAKELANILKYHIGDEILVSGGIGALVRLKSLQGDKLEVSLKNNVVSVNKEPVAEPDIMATNGVVHVITNVL
induction of apoptosis of β3/HEK293 cells [1]: induced by the fas-1 domain in a dose-dependent manner | induction of apoptosis of pc/HEK293 cells [2]: not induced | in vivo angiogenesis inhibitory effect compared with YH motif-containing peptide fragment of 18 amino acids ([3]; 5 μM fas-1 domain vs 500 μM YH peptide): significantly higher | number of blood vessels in Matrigel plug ([3]; 5 μM in Matrigel, subcutaneous, 7 days): significantly smaller than that in the control | angiogenesis in Matrigel plug ([3]; 10 μM in Matrigel, subcutaneous, 7 days): perfectly inhibited

B2: truncated βig-h3: recombinant human βig-h3 with EMI domain, all four fas-1 domains and RGD motif; residues 68-653 of SEQ ID NO: 1 (SEQ ID NO: 66) (protein, listed as Homo sapiens)
chain: WYQRKICGKSTVISYECCPGYEKVPGEKGCPAALPLSNLYETLGVVGSTTTQLYTDRTEKLRPEMEGPGSFTIFAPSNEAWASLPAEVLDSLVSNVNIELLNALRYHMVGRRVLTDELKHGMTLTSMYQNSNIQIHHYPNGIVTVNCARLLKADHHATNGVVHLIDKVISTITNNIQQIIEIEDTFETLRAAVAASGLNTMLEGNGQYTLLAPTNEAFEKIPSETLNRILGDPEALRDLLNNHILKSAMCAEAIVAGLSVETLEGTTLEVGCSGDMLTINGKAIISNKDILATNGVIHYIDELLIPDSAKTLFELAAESDVSTAIDLFRQAGLGNHLSGSERLTLLAPLNSVFKDGTPPIDAHTRNLLRNHIIKDQLASKYLYHGQTLETLGGKKLRVFVYRNSLCIENSCIAAHDKRGRYGTLFTMDRVLTPPMGTVMDVLKGDNRFSMLVAAIQSAGLTETLNREGVYTVFAPTNEAFRALPPRERSRLLGDAKELANILKYHIGDEILVSGGIGALVRLKSLQGDKLEVSLKNNVVSVNKEPVAEPDIMATNGVVHVITNVLQPPANRPQERGDELADSALEI
adhesion of endothelial cells to coated protein [4]: mediated the adhesion of endothelial cells | binding to HUVECs surface [5]: bound to HUVECs surface in a dose-dependent manner

Reference: patent publication US20070167369A1, “Novel use of isolated polypeptide comprising four FAS-1 domains, EM1 domain and RGD motif” (KYUNGPOOK NATIONAL UNIVERSITY INDUSTRY-ACADEMIC COOPERATION …, priority 2004, published 2007)
